In article PMC10381965 one finds stoichiometry N data, which are given here for 1 substance.

The experiment addresses CENP-A nucleosome (CENP-A^Nuc), histone octamer of CENP-A, H4, H2A and H2B wrapped with C0N3 or CEN3 DNA (S. cerevisiae) (UniProt P36012). The experiment can be described thus: SEC-MALS; CENP-A nucleosome (C0N3 or CEN3 DNA), CENP-C, CENP-LN, CENP-OPQU+, CENP-HIK-TW, CBF1 and CBF3^Core mixed at 2 μM; cross-linked with 3 mM BS3; 10 mM Hepes pH 8.0, 80 mM NaCl, 1 mM EDTA, 0.5 mM TCEP. On the technique in general: In gel filtration, larger molecules generally elute earlier.

Take “CCAN, fully assembled (CENP-C, CENP-LN, CENP-OPQU+, CENP-HIK-TW) (from UniProt P35201 1-549; P38265 1-245; P38907 1-458; Q06675 1-368; Q02732 1-369; P53298 1-406; P38313 1-324; Q12493 1-238; Q06162 1-153; Q12262 1-181; Q12748 1-733; P47167 1-239; P43618 1-361; Q2V2P8 1-89) (complex)”: the stoichiometry N (usually a count of units in the complex or per binding partner) amounted to 2.
